Columns and labels:
[1] = target: T1, human CD4 expressed on cells (human, UniProt P01730 26-458); experiment: cell-based or functional assay
[2] = target: T1, human CD4 expressed on cells; experiment: cell-based or functional assay; remark: listed apart in the source
[3] = target: T1, human CD4 expressed on cells; experiment: cell-based or functional assay; remark: listed apart in the source
[4] = target: T1, human CD4 expressed on cells; experiment: cell-based or functional assay; remark: listed apart in the source
[5] = target: T1, human CD4 expressed on cells; experiment: cell-based or functional assay; remark: listed apart in the source
[6] = target: T1, human CD4 expressed on cells; experiment: cell-based or functional assay; remark: listed apart in the source
[7] = target: T1, human CD4 expressed on cells; experiment: cell-based or functional assay; remark: listed apart in the source
[8] = target: T1, human CD4 expressed on cells; experiment: cell-based or functional assay; remark: listed apart in the source
[9] = target: T1, human CD4 expressed on cells; experiment: flow cytometry, THP-1 cells
[10] = target: T1, human CD4 expressed on cells; experiment: flow cytometry, Jurkat cells
[11] = target: T1, human CD4 expressed on cells; experiment: flow cytometry, MOLM-13 cells (CXCR4+/CD4+)
[12] = target: T1, human CD4 expressed on cells; experiment: flow cytometry, THP-1 cells, anti-flag detection
[13] = target: T1, human CD4 expressed on cells; experiment: flow cytometry, MOLM-13 cells, anti-flag detection
[14] = target: T1, human CD4 expressed on cells; experiment: flow cytometry, primary human T cells, anti-flag detection
cynomolgus CD4 = target: T2, cynomolgus CD4 (cynomolgus, UniProt P79185 26-458); experiment: flow cytometry on the cynomolgus CD4+ T cell line HSC-F, anti-Flag + goat anti-mouse-PE
T2 construct: whole, on cells; also called cyno CD4

human CXCR4 = target: T3, human CXCR4 (human, UniProt P61073 1-352); experiment: ELISA on coated hCXCR4 lipoparticles versus null lipoparticles, anti-c-myc + anti-mouse-HRP
T3 construct: also called hCXCR4

[15] = target: T1, human CD4 expressed on cells; experiment: flow cytometry, Jurkat E6-1 cells (CXCR4+/CD4low); Jurkat E6-1 cells (CXCR4+/CD4low), average of 3 experiments

T2 sequence (P79185 26-458): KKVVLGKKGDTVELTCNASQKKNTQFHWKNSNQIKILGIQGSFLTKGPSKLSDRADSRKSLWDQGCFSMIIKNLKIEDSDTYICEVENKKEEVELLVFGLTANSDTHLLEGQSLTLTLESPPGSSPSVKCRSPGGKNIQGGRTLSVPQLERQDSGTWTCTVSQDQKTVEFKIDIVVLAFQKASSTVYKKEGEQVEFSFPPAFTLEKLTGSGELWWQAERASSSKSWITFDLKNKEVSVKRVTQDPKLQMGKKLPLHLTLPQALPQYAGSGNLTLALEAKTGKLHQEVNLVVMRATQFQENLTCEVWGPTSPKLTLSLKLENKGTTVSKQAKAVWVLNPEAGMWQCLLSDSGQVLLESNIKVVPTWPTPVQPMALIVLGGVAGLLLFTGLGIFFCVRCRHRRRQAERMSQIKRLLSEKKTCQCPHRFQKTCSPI
T3 sequence (P61073 whole entry): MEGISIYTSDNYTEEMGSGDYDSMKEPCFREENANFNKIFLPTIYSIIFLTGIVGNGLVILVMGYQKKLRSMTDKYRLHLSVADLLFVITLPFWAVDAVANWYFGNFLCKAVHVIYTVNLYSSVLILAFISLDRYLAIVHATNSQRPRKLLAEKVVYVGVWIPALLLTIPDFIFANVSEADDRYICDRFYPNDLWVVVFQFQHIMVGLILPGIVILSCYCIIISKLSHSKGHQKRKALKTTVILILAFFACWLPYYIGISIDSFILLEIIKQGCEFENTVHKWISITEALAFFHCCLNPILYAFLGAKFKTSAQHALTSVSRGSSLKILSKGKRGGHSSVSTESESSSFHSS

B1: Nanobody 03F11 (VHH)
VHH: EVQLVESGGGSVQPGGSLTLSCGTSGRTFNVMGWFRQAPGKEREFVAAVRWSSTGIYYTQYADSVKSRFTISRDNAKNTVYLEMNSLKPEDTAVYYCAADTYNSNPARWDGYDFRGQGTQVTVSS
notes: Monovalent anti-human CD4 Nanobody; also called CD4 3F11; anti-CD4 Nanobody 3F11; not shown: C-terminal myc-His6 tag (E. coli) or FLAG3-His6 tag (Pichia)
IC50, X4 HIV-1 NL4.3 replication in MT-4 cells [1]: 0.52 µg/mL | IC50, HIV-1 neutralization, MT-4 + NL4.3 [2]: 34.7 nM | IC50, MT-4 + NL4.3 (X4) [3]: 35.3 nM | IC50, PBMC + BaL (R5) [3]: 610 nM | IC50, PBMC + NL4.3 (X4) [3]: 580 nM | IC50, U87 + NL4.3 (X4) [3]: > 1330 nM | IC50, MT-4, HE (R5/X4) [4]: 10 nM | IC50, MT-4, HIV-2 ROD (R5/X4) [4]: 22.7 nM | IC50, MT-4, NL4.3 (X4) [4]: 34.7 nM | IC50, PBMC, BaL (R5) [4]: 610 nM | IC50, PBMC, DJ259 (R5) [4]: 31 nM | IC50, PBMC, HE (R5/X4) [4]: > 1700 nM | IC50, PBMC, NL4.3 (X4) [4]: 500 nM | IC50, PBMC, SM145 (R5) [4]: 27 nM | IC50, MT-4, NL4.3 2G12 res. [5]: 23.3 nM | IC50, MT-4, NL4.3 3F11 res. [5]: > 6700 nM | IC50, MT-4, NL4.3 281F12 res. [5]: > 6700 nM | IC50, MT-4, NL4.3 AMD-3100 res. [5]: 22.7 nM | IC50, MT-4, NL4.3 CXCL-12 res. [5]: 153 nM | IC50, MT-4, NL4.3 wt [5]: 34.7 nM | IC50, PBMC, NL4.3 3F11 res. [5]: > 6700 nM | IC50, PBMC, NL4.3 281F12 res. [5]: > 6700 nM | IC50, PBMC, NL4.3 WT [5]: 500 nM | IC50, TZM-bl, DJ259 (R5) [6]: 169 nM | IC50, TZM-bl, NL4.3 3F11 res [6]: > 6700 nM | IC50, TZM-bl, NL4.3 281F12 res [6]: > 6700 nM | IC50, TZM-bl, NL4.3 WT (X4) [6]: 131 nM | IC50, TZM-bl, SM145 (R5) [6]: 8.33 nM | IC50, syncytia formation, SupT1 + HUT-78/IIIb [7]: 4600 nM | IC50, syncytia formation, SupT1 + HUT-78/NL4.3 [7]: 2800 nM | IC50, HIV1 infectivity, X4 NL4.3 in MT-4 cells [8]: 60.7 nM | EC50 [9]: 0.5 nM | EC50 [10]: 1.1 nM | EC50 [11]: 0.7 nM | EC50 [12]: 1 nM | EC50 [13]: 0.6 nM | EC50 [14]: 0.76 nM | binding result (cynomolgus CD4): binds | binding result (human CXCR4): no binding (tested: 100 nM) | EC50 [15]: 1.4 nM

Reference: patent US20180086837A1 (Ablynx, published 2018)
